Measured values reported in PMC9464187 (2022).
Values belong to the molecule of their own block, whether it stands above or below them.

Tests used:
[1] = biological target: HLA-A*11:01 presenting the KRAS G12D decamer peptide …; experiment: SPR; biotinylated pHLA (400-500 RU) immobilised on a streptavidin-coated CM5 chip, Biacore T200; multi cycle steady state analysis, ten 2-fold dilutions of TCR starting at 50 µM; one site fit
[2] = biological target: HLA-A*11:01 presenting the KRAS^G12D decamer peptide … (human | not stated); experiment: SPR; biotinylated pHLA (400-500 RU) immobilised on a streptavidin-coated CM5 sensor chip, Biacore T200; multi cycle steady state analysis, 10-point titration of JDI TCR from 50 µM to 0.1 µM; one site total least squares fit
[3] = biological target: HLA-A*11:01 presenting the KRAS^G12D decamer peptide …; experiment: SPR
[4] = biological target: T1, KRAS WT peptide on HLA-A*11:01 (human); experiment: SPR; >4000-fold weaker than to KRAS G12D; soluble, with an engineered disulfide between the constant domains
T1 peptide: VVVGAGGVGK

[5] = biological target: T2, KRAS G12D peptide on HLA-A*11:01 (human); experiment: SPR single cycle kinetics; soluble, with an engineered disulfide between the constant domains
T2 peptide: VVVGADGVGK

Molecule: JDI TCR (parent TCR) JDIa96b35
other: t1/2 [3]: > 20 h

B1: JDIa41b1 TCR (TCR)
alpha TRAV19*01 CDR3: AMSVPSGDGSYQFT
beta TRBV6-2*01 CDR3: ASKVGPGQHNSPLH
Kd [4]: 3 µM
t1/2 [5]: 1.2 h

Other lines, results leading:

Kd [1]: 62.8 µM
Kd [2]: 63 µM
Molecule: JDI TCR (parent TCR)

other: t1/2 [3]: 0.3 h
Molecule: JDI TCR (parent TCR) JDIa9bwt
